Consider 5 molecules from US20220387578A1 (VANDERBILT UNIVERSITY, published 2022).

For this test, the target named is H3 HA A/Hong Kong/1/1968 (H3N2), recombinant soluble trimer (influenza A virus, UniProt Q91MA7 17-530).

Substitutions are numbered along the chain they refer to. Numbers in names are those of the source.

B1: rFluA-20 heavy chain mutant Y34A (antibody, V domains shown)
VH: QVQLQESGPGLVKPSETLSLTCSVSGVSVTSDIAYWTWIRQPPGKGLEWIGYIFYNGDTNYNPSLKSRVTMSIDTSKNEFSLRLTSVTAADTAVYFCARGTEDLGYCSSGSCPNHWGQGTLVTVSS
VL: DIQMTQSPSSLSASIGDRVTITCRPSQNIRSFLNWFQHKPGKAPKLLIYAASNLQSGVPSRFSGSGSGTEFTLTIRSLQPEDFATYYCQQSYNTPPTFGQGTKVEIK
In the case of B1, the EC50 is 0.07 µg/mL.

B2: rFluA-20 heavy chain mutant E97A (antibody, V domains shown)
VH: B1 VH with A34Y, E102A
VL: B1 VL
For B2, the EC50 was 0.07 µg/mL.

B3: rFluA-20 heavy chain mutant Y100aA (antibody, V domains shown)
VH: B1 VH with A34Y, Y106A
VL: B1 VL
Turning to B3, the EC50 came out at 0.07 µg/mL.

B4: rFluA-20 light chain mutant N53A (antibody, V domains shown)
VH: B1 VH with A34Y
VL: B1 VL with N53A
Turning to B4, the EC50 came to 0.06 µg/mL.

B5: rFluA-20 heavy chain mutant T96A (antibody, V domains shown)
VH: B1 VH with A34Y, T101A
VL: B1 VL
On to B5, for which the EC50 came to 0.1 µg/mL.

For orientation: EC50 means the concentration needed to bring the measured effect to its halfway point.
